The text below walks through data of patent US20200392198A1 (UNIVERSITY OF COPENHAGEN, published 2020).

Test [1] deals with T1, human GIP receptor (human, UniProt P48546 22-466).
T1 sequence (looked up): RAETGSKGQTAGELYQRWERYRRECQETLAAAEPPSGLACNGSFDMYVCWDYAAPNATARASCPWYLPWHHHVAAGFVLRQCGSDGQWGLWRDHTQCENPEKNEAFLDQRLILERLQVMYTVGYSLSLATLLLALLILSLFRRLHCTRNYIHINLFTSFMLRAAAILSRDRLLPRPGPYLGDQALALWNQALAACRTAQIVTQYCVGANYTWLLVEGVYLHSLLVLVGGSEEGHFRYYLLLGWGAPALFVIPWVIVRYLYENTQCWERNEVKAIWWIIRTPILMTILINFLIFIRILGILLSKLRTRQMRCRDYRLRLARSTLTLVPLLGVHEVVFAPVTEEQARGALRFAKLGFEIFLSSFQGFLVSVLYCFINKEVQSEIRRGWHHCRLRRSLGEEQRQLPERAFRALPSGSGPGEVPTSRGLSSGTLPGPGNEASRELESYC
As to the kind of experiment: cell-based or functional assay.

Test [2] concerns the target T2, human GLP-2 receptor (human, UniProt O95838 1-553).
T2 sequence (looked up): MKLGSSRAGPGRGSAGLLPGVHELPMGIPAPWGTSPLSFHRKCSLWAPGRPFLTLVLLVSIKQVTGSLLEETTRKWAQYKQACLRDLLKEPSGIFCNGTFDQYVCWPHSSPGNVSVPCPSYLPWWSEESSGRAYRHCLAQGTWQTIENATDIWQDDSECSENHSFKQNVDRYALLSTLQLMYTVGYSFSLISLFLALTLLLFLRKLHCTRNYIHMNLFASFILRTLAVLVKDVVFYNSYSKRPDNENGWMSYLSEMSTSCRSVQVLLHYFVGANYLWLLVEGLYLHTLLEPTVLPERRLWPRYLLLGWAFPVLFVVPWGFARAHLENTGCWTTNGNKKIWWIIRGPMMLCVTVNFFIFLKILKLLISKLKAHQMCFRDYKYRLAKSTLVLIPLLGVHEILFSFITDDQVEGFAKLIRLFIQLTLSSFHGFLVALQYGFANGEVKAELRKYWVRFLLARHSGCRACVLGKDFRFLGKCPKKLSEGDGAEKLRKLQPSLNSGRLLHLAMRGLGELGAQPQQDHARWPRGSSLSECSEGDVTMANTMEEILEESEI
As to the kind of experiment: cell-based or functional assay.

Where only a bound is given, the exact number is not on record here.

With HAEGTFISDYSTILDNLAARDFVNWLLAQKITD [GIP-GLP-2 co-agonist 9], in test [1], the “EC50 (cAMP)” value is 0.0032 µM; the “Emax (10 µM), % of native GIP” value is 100%; the “fold (EC50 vs native GIP)” value stood at 36 fold; the “logEC50 (cAMP)” value is -8.5. For the same molecule, in test [2], the “EC50 (cAMP)” value is 0.123 µM; the “Emax (10 µM), % of native GLP-2” value worked out at 67%; the “fold (EC50 vs native GLP-2)” value turned out to be 103 fold; the “logEC50 (cAMP)” value is -6.91.

Take HAEGTFISDYSTILDNLAARDFINWLIQTKGKK [GIP-GLP-2 co-agonist 10]: in test [1], the “EC50 (cAMP)” value was found to be 0.0054 µM; the “Emax (10 µM), % of native GIP” value is 100%; the “fold (EC50 vs native GIP)” value stood at 61 fold; the “logEC50 (cAMP)” value is -8.27. Moreover, in test [2], the “EC50 (cAMP)” value was determined as 0.022 µM; the “Emax (10 µM), % of native GLP-2” value was 77%; the “fold (EC50 vs native GLP-2)” value was found to be 18 fold; the “logEC50 (cAMP)” value is -7.66.

Regarding HAEGTFISDYSTILDNLAARDFINWLIQTKITDNDWKHNITQ [GIP-GLP-2 co-agonist 2], in test [1], the “EC50 (cAMP)” value came out at 0.012 µM; the “Emax (1 µM), % of native GIP” value stood at 100%; the “fold (EC50 vs native GIP)” value was 135 fold; the “logEC50 (cAMP)” value was -7.92. Moreover, in test [2], the “EC50 (cAMP)” value turned out to be 0.145 µM; the “Emax (1 µM), % of native GLP-2” value came out at 93%; the “fold (EC50 vs native GLP-2)” value is 121 fold; the “logEC50 (cAMP)” value was -6.84.

Turning to HAEGTFSDEYSTILDNLAARDFINWLIQTKITD [GIP-GLP-2 co-agonist 5], in test [1], the “EC50 (cAMP)” value was found to be 0.456 µM; the “Emax (10 µM), % of native GIP” value was 75%; the “fold (EC50 vs native GIP)” value is 5120 fold; the “logEC50 (cAMP)” value is -6.34. Further, in test [2], the “EC50 (cAMP)” value turned out to be 0.0062 µM; the “Emax (10 µM), % of native GLP-2” value stood at 91%; the “fold (EC50 vs native GLP-2)” value worked out at 5.2 fold; the “logEC50 (cAMP)” value is -8.21.

Turning to HAEGTFISDYSTILDNIHQQDFINWLIQTKITD [GIP-GLP-2 co-agonist 8], in test [1], the “EC50 (cAMP)” value turned out to be 0.0059 µM; the “Emax (10 µM), % of native GIP” value worked out at 100%; the “fold (EC50 vs native GIP)” value amounted to 66 fold; the “logEC50 (cAMP)” value is -8.23. In test [2], the “Emax (10 µM), % of native GLP-2” value came to 22% and the “logEC50 (cAMP)” value is greater than -5.

As for HVDGTFISDYSTILDNLAARDFINWLIQTKITD [GIP-GLP-2 co-agonist 12], in test [1], the “EC50 (cAMP)” value was determined as 0.0011 µM; the “Emax (10 µM), % of native GIP” value amounted to 96%; the “fold (EC50 vs native GIP)” value came to 12 fold; the “logEC50 (cAMP)” value was -8.96. In test [2], the “EC50 (cAMP)” value came to 0.025 µM; the “Emax (10 µM), % of native GLP-2” value was determined as 81%; the “fold (EC50 vs native GLP-2)” value was found to be 21 fold; the “logEC50 (cAMP)” value is -7.6.

As to HADGTFISDYSTILDNLAARDFINWLIQTKGTD [GIP-GLP-2 co-agonist 16], in test [1], the “EC50 (cAMP)” value amounted to 0.0006 µM; the “Emax (10 µM), % of native GIP” value was 95%; the “fold (EC50 vs native GIP)” value is 6.7 fold; the “logEC50 (cAMP)” value was -9.22. Further, in test [2], the “EC50 (cAMP)” value was 0.082 µM; the “Emax (10 µM), % of native GLP-2” value stood at 74%; the “fold (EC50 vs native GLP-2)” value stood at 68 fold; the “logEC50 (cAMP)” value was -7.06.

As to HADGTFISEYSTILDNLAARDFINWLIQTKITD [GIP-GLP-2 co-agonist 15], in test [1], the “EC50 (cAMP)” value turned out to be 0.0032 µM; the “Emax (10 µM), % of native GIP” value was 92%; the “fold (EC50 vs native GIP)” value is 36 fold; the “logEC50 (cAMP)” value is -8.5. For the same molecule, in test [2], the “EC50 (cAMP)” value came to 0.0067 µM; the “Emax (10 µM), % of native GLP-2” value came out at 104%; the “fold (EC50 vs native GLP-2)” value was 5.6 fold; the “logEC50 (cAMP)” value was -8.18.

In the case of HAEGTFISDYSTILDNLAARDFINWLIQTKITD [GIP-GLP-2 co-agonist 1], in test [1], the “EC50 (cAMP)” value turned out to be 0.03 µM; the “Emax (1 µM), % of native GIP” value is 100%; the “fold (EC50 vs native GIP)” value was 337 fold; the “logEC50 (cAMP)” value is -7.53. In test [2], the “EC50 (cAMP)” value was determined as 0.098 µM; the “Emax (1 µM), % of native GLP-2” value was found to be 93%; the “fold (EC50 vs native GLP-2)” value was determined as 82 fold; the “logEC50 (cAMP)” value was -7.01.

For HADGTFIDDYSTILDNLAARDFINWLIQTKITD [GIP-GLP-2 co-agonist 14], in test [1], the “EC50 (cAMP)” value turned out to be 0.0024 µM; the “Emax (10 µM), % of native GIP” value turned out to be 94%; the “fold (EC50 vs native GIP)” value is 27 fold; the “logEC50 (cAMP)” value was -8.63. Besides, in test [2], the “EC50 (cAMP)” value turned out to be 0.011 µM; the “Emax (10 µM), % of native GLP-2” value is 90%; the “fold (EC50 vs native GLP-2)” value is 9.2 fold; the “logEC50 (cAMP)” value was -7.97.

Take HAEGSFISDYSTILDNLAARDFINWLIQTKITD [GIP-GLP-2 co-agonist 4]: in test [1], the “EC50 (cAMP)” value was found to be 0.038 µM; the “Emax (10 µM), % of native GIP” value is 83%; the “fold (EC50 vs native GIP)” value came out at 427 fold; the “logEC50 (cAMP)” value is -7.42. Moreover, in test [2], the “EC50 (cAMP)” value was 0.025 µM; the “Emax (10 µM), % of native GLP-2” value came to 90%; the “fold (EC50 vs native GLP-2)” value was 21 fold; the “logEC50 (cAMP)” value was -7.59.

With HADGTFISDYSTILDNLAARDFINWLIQTKIKD [GIP-GLP-2 co-agonist 17], in test [1], the “EC50 (cAMP)” value came to 0.0004 µM; the “Emax (10 µM), % of native GIP” value is 95%; the “fold (EC50 vs native GIP)” value worked out at 4.5 fold; the “logEC50 (cAMP)” value is -9.39. In test [2], the “EC50 (cAMP)” value turned out to be 0.025 µM; the “Emax (10 µM), % of native GLP-2” value was found to be 88%; the “fold (EC50 vs native GLP-2)” value was 21 fold; the “logEC50 (cAMP)” value was -7.61.

HAEGTFISDMNTILDNLAARDFINWLIQTKITD [GIP-GLP-2 co-agonist 6]: in test [1], the “EC50 (cAMP)” value was determined as 0.172 µM; the “Emax (10 µM), % of native GIP” value stood at 83%; the “fold (EC50 vs native GIP)” value amounted to 1930 fold; the “logEC50 (cAMP)” value was -6.77. Further, in test [2], the “EC50 (cAMP)” value worked out at 0.06 µM; the “Emax (10 µM), % of native GLP-2” value amounted to 70%; the “fold (EC50 vs native GLP-2)” value stood at 50 fold; the “logEC50 (cAMP)” value was -7.22.

As for HADGTFSSDYSTILDNLAARDFINWLIQTKITD [GIP-GLP-2 co-agonist 13], in test [1], the “EC50 (cAMP)” value worked out at 0.012 µM; the “Emax (10 µM), % of native GIP” value is 91%; the “fold (EC50 vs native GIP)” value came to 135 fold; the “logEC50 (cAMP)” value is -7.92. Moreover, in test [2], the “EC50 (cAMP)” value is 0.011 µM; the “Emax (10 µM), % of native GLP-2” value was 99%; the “fold (EC50 vs native GLP-2)” value is 9.2 fold; the “logEC50 (cAMP)” value is -7.95.

Turning to HADGTFISDYSTILDNLAARDFINWLIQTKITK [GIP-GLP-2 co-agonist 18], in test [1], the “EC50 (cAMP)” value was found to be 0.00066 µM; the “Emax (10 µM), % of native GIP” value worked out at 89%; the “fold (EC50 vs native GIP)” value was 7.4 fold; the “logEC50 (cAMP)” value is -9.18. Besides, in test [2], the “EC50 (cAMP)” value was 0.0053 µM; the “Emax (10 µM), % of native GLP-2” value is 94%; the “fold (EC50 vs native GLP-2)” value worked out at 4.4 fold; the “logEC50 (cAMP)” value was -8.28.

With HADGTFISDYSTILDNLAARDFINWLIQTKITD [GIP-GLP-2 co-agonist 3], in test [1], the “EC50 (cAMP)” value was determined as 0.00011 µM; the “Emax (10 µM), % of native GIP” value worked out at 100%; the “fold (EC50 vs native GIP)” value is 1.2 fold; the “logEC50 (cAMP)” value is -9.97. In addition, in test [2], the “EC50 (cAMP)” value came to 0.021 µM; the “Emax (10 µM), % of native GLP-2” value is 100%; the “fold (EC50 vs native GLP-2)” value was 18 fold; the “logEC50 (cAMP)” value is -7.67.

As to HADGTFISDYSTILDNLAARDFINWLIQTKGKK [GIP-GLP-2 co-agonist 19], in test [1], the “EC50 (cAMP)” value was found to be 0.00025 µM; the “Emax (10 µM), % of native GIP” value came to 93%; the “logEC50 (cAMP)” value is -9.6. Also, the “Emax (10 µM), % of native GLP-2” value in test [2] turned out to be 91%.

On to HAEGTFISDYSIAMDKLAARDFINWLIQTKITD [GIP-GLP-2 co-agonist 7], for which, in test [1], the “EC50 (cAMP)” value was determined as 0.026 µM; the “Emax (10 µM), % of native GIP” value was found to be 92%; the “fold (EC50 vs native GIP)” value is 292 fold; the “logEC50 (cAMP)” value was -7.59. For the same molecule, in test [2], the “EC50 (cAMP)” value came to 0.351 µM; the “Emax (10 µM), % of native GLP-2” value was found to be 78%; the “fold (EC50 vs native GLP-2)” value is 293 fold; the “logEC50 (cAMP)” value is -6.45.
